# Assay results as given in patent publication US8715676B2, “Production and uses of type I ribosome inactivating proteins” (priority 2008, dated 2014).
# Where two headings read alike, the source gives them in different places.
# B1: Recombinant Cucurmosin: 297 amino acid pro-cucurmosin (SEQ ID 4), type 1 ribosome inactivating protein expressed in E. coli with C-terminal histidine tag (protein, listed as Cucurbita moschata)
# chain: MNVRFDLSSATSSSYKTFIKNLREALPKDGKVYDIPVLLSTVMDSRRFILIDLVNYDGQSITAAIDVLNVYIVAYSTGTVSYFFQQVPAQAPKLLFKGTQQRTLPYTGNYENLQTAAKKLRENIELGLPALDSAITTLFHYNAEAAASALLVLIQTTSEAARFRYIELQIANNVGTKFKPSQTIISLENNWSALSKQIQIAKNKNGQFETPVILIDPQGNRVQITNVTSNVVTQNIKLLLNIGATVDTMAANDDVDEMTSGVPIRLSSCGHEMERKSVENGRHANYVSVLEHHHHHH
# modifications: C-terminal His tag
# Tests used:
# LO2 non-cancer cells = assay: Cytotoxicity in non-cancer cells in vitro (TOX8 viability, 72 h); type: cell-based
# Method: (§1) Human breast cancer cells, MDA 231 and BT 474, were grown in tissue culture to assay for the concentration at which 50% of the cells are inhibited from growing (IC50). The cells were seeded in 96-well plates at 5000 cells per well and grown overnight in RPMI 1640 supplemented with 10% fetal bovine serum and 15 μg/ml insulin. The culture medium was replaced. The recombinant cucurmosin, natural cucurmosin and vinblastine were added to the cells at various concentrations. Likewise, the non-cancer cells, LO2 and lymphocytes were treated with these drugs at different concentrations. The cells were grown for an additional 72 hours and then 20 μl of TOX8 was added to each well. The cells were incubated another 8 hours at 37° C., 5% CO2 to allow time for the cells to metabolize the TOX8 indicator. Absorbance readings at 600 nm were taken of each well. Viability was indicated by a drop in absorbance at 600 nm readings.
# [1] = system: lymphocytes (non-cancer cells); assay: as above; type: cell-based
# Method: as §1
# [2] = system: MDA 231 human breast cancer cells; assay: Cytotoxicity in cancer cells in vitro (TOX8 viability, 72 h); type: cell-based
# Method: as §1
# [3] = system: BT 474 human breast cancer cells; assay: as above; type: cell-based; details: TB474 (BT 474) cells
# Method: as §1
# HMEL tumors [4] = assay: Treating HMEL tumors in mice by tail vein injection; type: in vivo, NOD/SCID mice
# Method: (§2) Human lung cancer cells, […] or A549, were used to induce tumor formation in backs of NOD/SCID mice (JAX, #001303). The cells were maintained in culture. In each experiment, 5 million cells were injected into the back of the mice. Tumors formed in 2 to 3 weeks. Tumor sizes were measured using a digital caliper and then areas calculated.
# (§3) In one experiment, either 5 or 50 μg recombinant cucurmosin was injected into the HMEL tumors in 100 μl of saline solution on the days that the tumors were measured. Mouse 2 had tumors in both sides of its back which were each treated separately. Over the 18 day period, the mouse injected with no cucurmosin saw its tumor increase 267% (TABLE 2). […] Mouse 1 and 3 with HMEL tumors after 18 days intratumoral treatment (Table 2), were continually administered recombinant cucurmosin by tail vein injection using 50 μg of recombinant cucurmosin in 100 μl saline solution at day 0 (the same day as day 18 of intratumoral treatment) and day 5. […] The results of these tests are depicted in FIG. 1.
# A549 tumors = assay: Treating A549 tumors in mice, intratumoral injection; type: in vivo, NOD/SCID mice; details: for Tumor growth: Day 1 to Day 11
# Method: as §2
# In another group of mice, carrying tumors derived from A549 cells, 5 or 50 μg treatments of directly injected recombinant cucurmosin into the tumors was able to reduce tumors by 15 and 33%, respectively while the negative control saw the tumor grow 150% (TABLE 3).
# HMEL tumors [5] = assay: Treating HMEL tumors in mice, intratumoral injection; type: in vivo, NOD/SCID mice; details: for Tumor growth: over 18 days
# Method: as §2, §3
molecule,measurement,setting,value
"CC[C@]1(O)C[C@@H]2CN(CCc3c([nH]c4ccccc34)[C@@](C(=O)OC)(c3cc4c(cc3OC)N(C)[C@H]3[C@@](O)(C(=O)OC)[C@H](OC(C)=O)[C@]5(CC)C=CCN6CC[C@]43[C@@H]65)C2)C1 [Vinblastine, reference compound]",IC50,LO2 non-cancer cells,68 nM
same,IC50,[1]; Lymphocyte,73 nM
same,IC50,"[2]; Homo sapiens, MDA-MB-231, MDA231 cells",25 nM
same,IC50,[3]; Homo sapiens,26 nM
B1,Toxic effects on the mice,HMEL tumors [4]; 50 μg tail vein injection,no obvious toxic effects
same,Tumor size increase,"HMEL tumors [4]; Mouse 3, 50 μg tail vein at day 0 and day 5, seven days after initial injection",7%
same,IC50,LO2 non-cancer cells,1200 nM
same,IC50,[1],2500 nM
same,IC50,[2]; MDA231 cells,23 nM
same,IC50,"[2]; MDA231 cells, listed as recombinant cucurmosin",> 20 nM
same,IC50,[3],22 nM
same,IC50,[3]; listed as recombinant cucurmosin,> 20 nM
same,Tumor reduction,A549 tumors; 5 μg directly injected into the tumors,15%
same,Tumor reduction,A549 tumors; 50 μg directly injected into the tumors,33%
same,Tumor Size,"A549 tumors; Mouse 2, 5 μg intratumoral, Day 1",34.7 mm^2
same,Tumor growth,"A549 tumors; Mouse 2, 5 μg intratumoral",−15%
same,Tumor Size,"A549 tumors; Mouse 2, 5 μg intratumoral, Day 3",38.8 mm^2
same,Tumor Size,"A549 tumors; Mouse 2, 5 μg intratumoral, Day 5",42.4 mm^2
same,Tumor Size,"A549 tumors; Mouse 2, 5 μg intratumoral, Day 7",40.8 mm^2
same,Tumor Size,"A549 tumors; Mouse 2, 5 μg intratumoral, Day 9",39.5 mm^2
same,Tumor Size,"A549 tumors; Mouse 2, 5 μg intratumoral, Day 11",29.5 mm^2
same,Tumor Size,"A549 tumors; Mouse 3, 50 μg intratumoral, Day 1",100.6 mm^2
same,Tumor growth,"A549 tumors; Mouse 3, 50 μg intratumoral",−33%
same,Tumor Size,"A549 tumors; Mouse 3, 50 μg intratumoral, Day 3",104.1 mm^2
same,Tumor Size,"A549 tumors; Mouse 3, 50 μg intratumoral, Day 5",108.6 mm^2
same,Tumor Size,"A549 tumors; Mouse 3, 50 μg intratumoral, Day 7",113.1 mm^2
same,Tumor Size,"A549 tumors; Mouse 3, 50 μg intratumoral, Day 9",78.8 mm^2
same,Tumor Size,"A549 tumors; Mouse 3, 50 μg intratumoral, Day 11",67.3 mm^2
same,Side-effects in mice,"HMEL tumors [5]; 5 or 50 μg intratumoral, 18 days",did not suffer any noticeable side-effects
same,Tumor Size,"HMEL tumors [5]; Mouse 2 left, 5 μg intratumoral, Day 1",39.4 mm^2
same,Tumor Size,"HMEL tumors [5]; Mouse 2 left, 5 μg intratumoral, Day 3",33 mm^2
same,Tumor Size,"HMEL tumors [5]; Mouse 2 left, 5 μg intratumoral, Day 5",23 mm^2
same,Tumor Size,"HMEL tumors [5]; Mouse 2 left, 5 μg intratumoral, Day 8",19.7 mm^2
same,Tumor Size,"HMEL tumors [5]; Mouse 2 left, 5 μg intratumoral, Day 15",12.5 mm^2
same,Tumor Size,"HMEL tumors [5]; Mouse 2 left, 5 μg intratumoral, Day 18",0 mm^2
same,Tumor growth,"HMEL tumors [5]; Mouse 2 left, 5 μg intratumoral",−100%
same,Tumor Size,"HMEL tumors [5]; Mouse 2 right, 5 μg intratumoral, Day 1",27.8 mm^2
same,Tumor Size,"HMEL tumors [5]; Mouse 2 right, 5 μg intratumoral, Day 3",24.8 mm^2
same,Tumor Size,"HMEL tumors [5]; Mouse 2 right, 5 μg intratumoral, Day 5",18.5 mm^2
same,Tumor Size,"HMEL tumors [5]; Mouse 2 right, 5 μg intratumoral, Day 8",12.2 mm^2
same,Tumor Size,"HMEL tumors [5]; Mouse 2 right, 5 μg intratumoral, Day 15",0 mm^2
same,Tumor Size,"HMEL tumors [5]; Mouse 2 right, 5 μg intratumoral, Day 18",0 mm^2
same,Tumor growth,"HMEL tumors [5]; Mouse 2 right, 5 μg intratumoral",−100%
same,Effect on tumor growth compared to the negative control,"HMEL tumors [5]; Mouse 3 (largest tumor), 5 μg intratumoral",slow the tumor growth compared to the negative control
same,Tumor Size,"HMEL tumors [5]; Mouse 3, 5 μg intratumoral, Day 1",162.2 mm^2
same,Tumor Size,"HMEL tumors [5]; Mouse 3, 5 μg intratumoral, Day 3",158 mm^2
same,Tumor Size,"HMEL tumors [5]; Mouse 3, 5 μg intratumoral, Day 5",151.8 mm^2
same,Tumor Size,"HMEL tumors [5]; Mouse 3, 5 μg intratumoral, Day 8",186.7 mm^2
same,Tumor Size,"HMEL tumors [5]; Mouse 3, 5 μg intratumoral, Day 15",206.7 mm^2
same,Tumor Size,"HMEL tumors [5]; Mouse 3, 5 μg intratumoral, Day 18",231.2 mm^2
same,Tumor growth,"HMEL tumors [5]; Mouse 3, 5 μg intratumoral",43%
same,Tumor Size,"HMEL tumors [5]; Mouse 4, 50 μg intratumoral, Day 1",23.9 mm^2
same,Tumor Size,"HMEL tumors [5]; Mouse 4, 50 μg intratumoral, Day 3",12.2 mm^2
same,Tumor Size,"HMEL tumors [5]; Mouse 4, 50 μg intratumoral, Day 5",9.4 mm^2
same,Tumor Size,"HMEL tumors [5]; Mouse 4, 50 μg intratumoral, Day 8",0 mm^2
same,Tumor Size,"HMEL tumors [5]; Mouse 4, 50 μg intratumoral, Day 15",0 mm^2
same,Tumor Size,"HMEL tumors [5]; Mouse 4, 50 μg intratumoral, Day 18",0 mm^2
same,Tumor growth,"HMEL tumors [5]; Mouse 4, 50 μg intratumoral",−100%
same,Effect on tumors smaller than 40 mm^2,"HMEL tumors [5]; either 5 or 50 μg intratumoral, 18 day period",completely abrogated
